This is an account of results in US6403765B1, “Truncated Apaf-1 and methods of use thereof” (Thomas Jefferson University, priority 1998, dated 2002).

Common to all, as to assay: In vitro caspase 9 activation assay: recombinant Apaf-1 variants incubated with in vitro translated procaspase-9
Assay type in all cases: biochemical

In test [1] the target is T1, procaspase-9 (Homo sapiens, UniProt P55211).
T1 construct: schematic representation of full length procaspase-9; made in house; host or cells: coupled in vitro transcription/translation in rabbit reticulocyte lysate (TNT Kit, Promega)
T1 sequence (P55211 134-416): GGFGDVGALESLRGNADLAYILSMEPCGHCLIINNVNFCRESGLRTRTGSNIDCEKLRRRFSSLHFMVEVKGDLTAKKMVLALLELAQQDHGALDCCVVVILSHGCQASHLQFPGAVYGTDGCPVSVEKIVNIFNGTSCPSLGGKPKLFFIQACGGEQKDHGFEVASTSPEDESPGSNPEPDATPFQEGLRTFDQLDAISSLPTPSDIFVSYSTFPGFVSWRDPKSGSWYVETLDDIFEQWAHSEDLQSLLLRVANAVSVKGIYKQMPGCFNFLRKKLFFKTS

For test [2], the target named is T2, procaspase-9 (Homo sapiens, UniProt P55211).
T2 construct: schematic representation of full length procaspase-9; made in house; host or cells: coupled in vitro transcription/translation in rabbit reticulocyte lysate (TNT Kit, Promega)
T2 sequence (P55211 1-416): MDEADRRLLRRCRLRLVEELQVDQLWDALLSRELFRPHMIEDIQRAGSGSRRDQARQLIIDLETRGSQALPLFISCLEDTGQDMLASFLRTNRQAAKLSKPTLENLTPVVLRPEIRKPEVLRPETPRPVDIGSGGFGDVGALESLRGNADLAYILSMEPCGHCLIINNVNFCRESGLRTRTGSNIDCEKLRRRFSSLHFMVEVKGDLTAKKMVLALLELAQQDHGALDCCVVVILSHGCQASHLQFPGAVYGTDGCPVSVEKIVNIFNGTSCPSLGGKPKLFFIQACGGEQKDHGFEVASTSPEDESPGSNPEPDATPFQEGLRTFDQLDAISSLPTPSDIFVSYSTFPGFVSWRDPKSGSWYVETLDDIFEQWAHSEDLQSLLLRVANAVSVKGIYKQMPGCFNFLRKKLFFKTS
The note with it: in the absence of cytochrome c or dATP; 200 ng protein, 2 h at 30° C.; SDS-PAGE and autoradiography (FIG. 2A).

Test [3] has as its target T3, procaspase-9 (Homo sapiens, UniProt P55211, C287A).
T3 construct: schematic representation of full length procaspase-9; made in house; host or cells: coupled in vitro transcription/translation in rabbit reticulocyte lysate (TNT Kit, Promega)
T3 sequence (P55211 1-416 C287A): T2 sequence (P55211 1-416) with C287A

For test [4], the target named is T4, procaspase-9 (Homo sapiens, UniProt P55211, D315A).
T4 construct: schematic representation of full length procaspase-9; made in house; host or cells: coupled in vitro transcription/translation in rabbit reticulocyte lysate (TNT Kit, Promega)
T4 sequence (P55211 1-416 D315A): T2 sequence (P55211 1-416) with D315A
The note with it: 35S-labeled substrate, FIG. 3.

The subject of test [5] is procaspase-9.
[6] abbreviates: in the presence of non-radiolabeled WT procaspase-9, FIG. 14.

Numbering of substitutions follows the chain as printed.

B1: Apaf-530: truncated Apaf-1 (residues 1-530) lacking its WD-40 repeats, recombinant (protein, UniProt O14727 1-530, looked up, fragment)
chain: MDAKARNCLLQHREALEKDIKTSYIMDHMISDGFLTISEEEKVRNEPTQQQRAAMLIKMILKKDNDSYVSFYNALLHEGYKDLAALLHDGIPVVSSSSGKDSVSGITSYVRTVLCEGGVPQRPVVFVTRKKLVNAIQQKLSKLKGEPGWVTIHGMAGCGKSVLAAEAVRDHSLLEGCFPGGVHWVSVGKQDKSGLLMKLQNLCTRLDQDESFSQRLPLNIEEAKDRLRILMLRKHPRSLLILDDVWDSWVLKAFDSQCQILLTTRDKSVTDSVMGPKYVVPVESSLGKEKGLEILSLFVNMKKADLPEQAHSIIKECKGSPLVVSLIGALLRDFPNRWEYYLKQLQNKQFKRIRKSSSYDYEALDEAMSISVEMLREDIKDYYTDLSILQKDVKVPTKVLCILWDMETEEVEDILQEFVNKSLLFCDRNGKSFRYYLHDLQVDFLTEKNCSQLQDLHKKIITQFQRYHQPHTLSPDQEDCMYWYNFLAYHMASAKMHKELCALMFSLDWIKAKTELVGPAHLIHEFVEYR
As to B1, in the test with procaspase-9 [1] (35S-labeled substrate, FIG. 3), the “processing of prodomainless procaspase-9 (residues 134-416)” value was “prevented processing”. For the same molecule, the “processing of 35S-labeled prodomainless procaspase-9” value with procaspase-9 [1] (setting [6]) was “not”. In the test with procaspase-9 [2], the “processing of procaspase-9 to produce a 35 kDa fragment (p35)” value was “able to promote processing of procaspase-9”. Moreover, in the test with procaspase-9 [3] (35S-labeled substrate, FIG. 3), the “processing of procaspase-9 active site C287A mutant” value is given as “unable to promote processing”. Besides, the “processing of 35S-labeled C287A mutant procaspase-9” value in the test with procaspase-9 [3] (setting [6]) is recorded as “able to induce processing”. In addition, the “processing of D315A mutant procaspase-9” value with procaspase-9 [4] is “unable to process”. The “processing of WT or D330A mutant procaspase-9” value in the test on procaspase-9 [5] (35S-labeled substrate, FIG. 3) is reported as “produced the p35 fragment”. Besides, the “autoprocessing of C287A and R355E mutant procaspase-9” value in the test on procaspase-9 [5] (mutants incubated separately or together, 1 hour at 30° C., FIG. 13) was “none of the mutants were able to autoprocess”.
